Measurements as given in US20230340154A1 (Hoffmann-La Roche, published 2023).

Target: T1, murine CD40 (mouse, UniProt P27512 20-289)
T1 construct: Endogenous CD40 on cells in the tumor microenvironment of C57BL/6J mice; also called mouse CD40; muCD40
T1 sequence: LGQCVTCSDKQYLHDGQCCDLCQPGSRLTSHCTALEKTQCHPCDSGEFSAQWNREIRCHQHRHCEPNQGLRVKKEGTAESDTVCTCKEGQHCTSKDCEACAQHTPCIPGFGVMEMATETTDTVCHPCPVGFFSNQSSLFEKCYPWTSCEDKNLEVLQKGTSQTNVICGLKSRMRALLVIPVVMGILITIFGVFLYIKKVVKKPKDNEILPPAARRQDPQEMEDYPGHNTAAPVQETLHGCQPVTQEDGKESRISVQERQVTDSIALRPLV
Test: in vivo fluorescence imaging of the Alexa647-labelled antibody in TC-1 tumors (devoid of FAP expression), four days after i.p. injection
Description: To assess FAP-CD40 antibody access to the TC-1 tumor, we intraperitoneally injected the anti-FAP-CD40 antibody labeled with Alexa647 into TC-1 and mEERL95 tumor-bearing mice that underwent local irradiation. The antibody was detectable in both tumors four days upon administration. No significant difference in the fluorescence intensity was detected in both TC-1 and mEERL95 tumors (FIG. 4H) which present similar CD40 mRNA expression levels (FIG. 4C).

binding result: binds
B1: muCD40 x FAP (28H1) 4+1 bispecific antibody (VH on knob and VL on hole) (P1AD9139) (bispecific antibody)
light: DTVLTQSPALAVSPGERVTISCRASDSVSTLMHWYQQKPGQQPKLLIYLASHLESGVPARFSGSGSGTDFTLTIDPVEADDTATYYCQQSWNDPWTFGGGTKLELKRTVAAPSVFIFPPSDEQLKSGTASVVCLLNNFYPREAKVQWKVDNALQSGNSQESVTEQDSKDSTYSLSSTLTLSKADYEKHKVYACEVTHQGLSSPVTKSFNRGEC
heavy 1: not shown
heavy 2: EVQLVESDGGLVQPGRSLKLPCAASGFTFSDYYMAWVRQAPTKGLEWVASISYDGSSTYYRDSVKGRFTISRDNAKSTLYLQMDSLRSEDTATYYCGRHSSYFDYWGQGVMVTVSSASTKGPSVFPLAPSSKSTSGGTAALGCLVKDYFPEPVTVSWNSGALTSGVHTFPAVLQSSGLYSLSSVVTVPSSSLGTQTYICNVNHKPSNTKVDKKVEPKSCDGGGGSGGGGSEVQLVESDGGLVQPGRSLKLPCAASGFTFSDYYMAWVRQAPTKGLEWVASISYDGSSTYYRDSVKGRFTISRDNAKSTLYLQMDSLRSEDTATYYCGRHSSYFDYWGQGVMVTVSSASTKGPSVFPLAPSSKSTSGGTAALGCLVKDYFPEPVTVSWNSGALTSGVHTFPAVLQSSGLYSLSSVVTVPSSSLGTQTYICNVNHKPSNTKVDKKVEPKSCDKTHTCPPCPAPEAAGGPSVFLFPPKPKDTLMISRTPEVTCVVVDVSHEDPEVKFNWYVDGVEVHNAKTKPREEQYNSTYRVVSVLTVLHQDWLNGKEYKCKVSNKALGAPIEKTISKAKGQPREPQVCTLPPSRDELTKNQVSLSCAVKGFYPSDIAVEWESNGQPENNYKTTPPVLDSDGSFFLVSKLTVDKSRWQQGNVFSCSVMHEALHNHYTQKSLSLSPGGGGGSGGGGSGGGGSGGGGSEIVLTQSPGTLSLSPGERATLSCRASQSVSRSYLAWYQQKPGQAPRLLIIGASTRATGIPDRFSGSGSGTDFTLTISRLEPEDFAVYYCQQGQVIPPTFGQGTKVEIK
notes: Four anti-mouse CD40 (FGK4.5) Fabs, human IgG1 P329G LALA knob-into-hole Fc, and 28H1 VH on the knob chain and VL on the hole chain; That paragraph says only 'anti-FAP-CD40 antibody'; also called FAP-CD40; anti-FAP-CD40
